Assay results from the DeepSol protein solubility set.

Assay: soluble on expression in E. coli; label from the status in PepcDB or PDB records

Sequence | soluble on expression in E. coli
MLNEGAKNTEKQKVMEIITVAEPMSESELESIRNFLFRIIRREFGFGYIPEYHRDIINLEEYYLKPPRNIFLFASQGGRVIGTLGLRAYDREFEGLNYDPETTASLWRVFVDEDHRRMGVASRLVEIAEKEAASLGYQRIYLHTHKYVGGALEFWLSRGYRVTVDTGNELGTVHMEKTLSCNSNAITRIPEKTSELSHSLPRTQKV | soluble
SGSQAGSFRKASPQTPNIDENEKRIKRLEKLKRDLQNIKNERGILQGILAKYKDLNDRTNFETFMLEMQHNQMMTDLKRMSQDISEALYKCQHLTKENQLYCCRNCHLLIESNLIQHKVRMLWKENRQLLRKQIALEECNIKTKILCKEGSQKIKDEYSRQAAGKQIIVVPGSKEEAAMSNPCA | soluble
MKPAIKRACLLGTALFSLCASAAQAAGVLVGTWDLRGNGQLAAVYRDGANLQVVEGGSTRNYSFGNVVWSVFGATDTDGQPGAEILVKAGPDLVIVSHASTTQRKYPVGNVSWAIMRATDVDNVAGDEVILSIGNGVRTVFDRTRTQRDATFSYNGTWGLFDVADVDGAPGKELVLNMGNGVKVIDPRTSGAKDFTFSGYHALAQIADLDGQPGAEIIGRTSTGIYVISNASSRKEYSIGASAWALYGGTADTDGKPGNELIVVMQGKVRVIHHASGASSDYRIGDVNYSIDSVADMDGQPGAEILVRDANGKLFVINDRTGKVSS | not soluble
PQDAVIWLGAEKTGLKLTNSSNTFEGVIDGVDITVTKAQTSGETAIGLGIGADDEATKEQLNKFVDAYNTLISTIDEHTQIGSEDKKRGVLASDPTMRSIESQLSSLVRGEHGGMRLSEIGVTLDRHGKLKVDQEKFAEAQKNNSAGLEAMFNGDGALLDSMDAMAEPFLKFSSGAFKSRKEALQANLDRLSDKQTTLERKYDMSYKRYLKQFTQMNTLMTQMNQ | not soluble
MFPKNAWYVACTPDELAGKPLGRRICDEPMVFYRGEDGRVAALEDFCPHRGAPLSLGFVEDGVLVCGYHGLAMGEDGRTRAMPGQRVRGFPCIRRFPVQERHGFVWVWPGAEEQADDALIPRLEWAESPDWAYGGGLYHIHCDYRLMIDNLMDLTHETYVHASSIGQKEIDEAAPTTRVEGDEVITSRHMQNVMAPPFWRMALRGNGLADDVAVDRWQICRFTPPSHVLIEVGVAHAGHGGYQAPAERKAASIVVDFITPESATSIWYFWGMARNFQAHDQALTESIREGQGKIFGEDLEMLESQQRNLLRHPRRDLLKLNIDAGGVQARRIIERLLADER | not soluble
MGSDKIHHHHHHMSLPIIKVHWLDHSRAFRLLWLLDHLNLEYEIVPYKRDANFRAPPELKKIHPLGRSPLLEVQDRETGKKKILAESGFIFQYVLQHFDHSHVLMSEDADIADQINYYLFYVEGSLQPPLMIEFILSKVKDSGMPFPISYLARKVADKISQAYSSGEVKNQFDFVEGEISKNNGYLVDGKLSGADILMSFPLQMAFERKFAAPEDYPAISKWLKTITSEESYAASKEKARALGSNF | not soluble
MGSDKIHHHHHHMRVLHFYKTYLSETVGGIEQVIFQLCESSGSWGIDNHVLTLSSDPHPPVVPFGGHVVHRARLDLQLASTGFSLSVFKQFRELAAEADVVNYHFPWPFMDLVHFLTGMNKPSVVTYHSDIIRQRVLLKLYRPLMSRFLHSVDRIVAASPNYFSTSDVLRQYREKTRVITYGLDKDGYPKPATQRLEHWREKLGPRFFLFVGVMRYYKGLHILLDALQGTDYPVVIVGAGPLQAELYAQAAALGLRNVHFLGRVDDEDKVALLQLSYAMVFPSHLRSEAFGISLLEGAMYGKPMISSEIGTGTSYINIHGETGLVVPPSQPAAFRQAMRWLWEHPQQAEEMGRNAEARYRQLFTAEEMGRRWSELYRELLEEKASSRYVKAAR | not soluble
MGSDKIHHHHHHLPNLQEIFKKDNFIAWDDKVYPSILNFGAPLPKPLPRIAPNNAPLARLFIEFLYYYSMFNFKENYIGARPVMVMDRRTSQNNMVRSSTNKEVCIQDPFDEHNPGRTVRTLNRIKDVMRSTYQKFLPVEGSEFTFPTLDDIINMSPEVPKPSRAEVRNFRAEATEVNRVGLGVYCRNSFV | not soluble
MLFNSFQAKIDPSLADLFRNSDKEPFPAMTHELPPEKSLKARLLEQEDERISNVLAHEKRFSTEPVVIDDVFMSRLCVDSQPGCSRIPDIDIANVFRDDLESCTLSSSEDEEEEEEPIGQISTFEMLHAPRKPIVWSEQELSDFDMKSRLLDMRMDHWDLARIANVPKRIAKGETVNLRMPRYSAEVVKQRIAKGVTDIFGHFSLVPHTLTKSHKPVAERKQILIERYHDLMNDFDYATRPGSVESKKYANLTKRLNLCNDFLSAPKLPHRLFPRLIIRSIRPPETPKEPVKRKMRESESDDSVIIIPRKIEKEKPRPTTENVVLKKVEMEKKRPRSPELVPKKIVMEKERPSSPDSEAEEREHNLRIEKERHQKELEFRREALRKREQEREEHKKRAQEELRRQMTAALEESTRRQAEMNRQIEDEARKRDELQRIAEEKKRKQLLEDQCRAKQEKEKRDAEELEQMRLNIARLAGTKDVENALKSPSLVEIVPPSDARAFEMIKWNAVKCKIPENWEKRKDKFYRVFEWPSDAAQRDIERDEVVSIPRSKPIVIPQEDTYITRNRIPLKLPPKVKQAVPALVVRNSNNATRTVVAATVNENGIQWPAETINIDEVVREIRGLMAPTRRNFAISLSPKTDEIDYQAINLNRLKSGIVYPFYFSDGLYWPLVFLKSSKNGKPEAQRHVEALTSCKSFSGKYASRYLLTTTKEEDSATKKFEDAYADSDGDWADYSTKPGRFSNRAGFKPHYDTSNDSFEVQKQRAVDSLNSQYEKERNELDAFGRYTDEYRKRKDRAQYQNHIKTHLRELVRDARLDAFSFKEEFKDFEGGFEDYPGTRVEPYENDWYSHGYTLYSHTRDAAYADYMHDVCKPYEDMLPPTEYHEIFNEWCFTPMLASLHYQLKKNAFDVLSPQDVKDMEARHRKYIGLVQKERKFSLEQALDVCKLTDYDKRQWTILHDQLVTHFKDFPSISGLVYDRNTNLLANVNRNLKHLFSTIYRDDSPPDDQF | soluble
MGSDKIHHHHHHMSETELRKRQAQFTRELHGDDIGKKTGLSALMSKNNSAQKEAVQKYLRNWDGRTDKDAEERRLEDYNEATHSYYNVVTDFYEYGWGSSFHFSRFYKGESFAASIARHEHYLAYKAGIQRGDLVLDVGCGVGGPAREIARFTGCNVIGLNNNDYQIAKAKYYAKKYNLSDQMDFVKGDFMKMDFEENTFDKVYAIEATCHAPKLEGVYSEIYKVLKPGGTFAVYEWVMTDKYDENNPEHRKIAYEIELGDGIPKMFHVDVARKALKNCGFEVLVSEDLADNDDEIPWYYPLTGEWKYVQNLANLATFFRTSYLGRQFTTAMVTVMEKLGLAPEGSKEVTAALENAAVGLVAGGKSKLFTPMMLFVARKPENAETPSQTSQEATQ | not soluble
MSLRPRQLLLATDLGARCDRALDRAIQLSRAWHAALTVVHAVEQVELIDDEPSWRQPPDAALAIQAELEDELGEAGLSSIDARVLKGKPSEVVLKVAEEVEAELILTGVKRDGALEKALLGDTVTELARQSRVPVLVVKKRLRKPYGRIVVATDLSELSRAALARAVDLFGPDNLVVFHASFAHFASRMDDRVAYESELRSDAIQNCRDFIRDVAGEEAAATMEVMVEYGEPDLLLEKYVQDKQVDLVVVSTRGRSGLLGVLLGSVAMRILDSVACDVLIVRSEGHHHHHH | soluble
MAHHHHHHMSVTIKLSNGSQKTVEVPDLNITVAKFKEIASAVTNIPADEQRVVLRGRVLKDGDVLSAMGMEHGQAVHIVRGQKSTKSDVASPSAQESASTQETQTNTNPQARPETVNPYAALAANLPASGGFSNNIPGNPNPGLQMPPELLSNMLQNPAFMQYFQEMMRNPQFLQQRMQQPQQQSQSQSPFGMNEGEMQRLLNNPMFMQLVLQMMSDPSIMQQLTQSLGGGFPASNTPLFGQQNAPAPNFAQNTGFFQPQGDPRVLYQSQLQQLREMGFTNEQANLAALEQAHGNIDFAIERLLNA | soluble
MAHHHHHHMTVYPSLFVCHGGGPLPLLRDEGHKMLVDALKSHRKLLENRFGLPKAIVVISAHYETNTPKVGGAERPSLLFDYYGFPEESYKFRYPVPGNAPLAAAIVNALTVGGFHAEMEPERLLDHGVFVPLMIMFPEANIPVVPLSVLRSGDPAEHIRMGKALRPLRSDAVMFIGSGSTMHHFAHFNREGAGRKFGDALTSILCKNEVATLPEDRLKAMERVKTMEGFTEAQPLREHEHLMPLLTLVGAANGNIAEEVASISFGRANVRNYLFTE | not soluble
MTQDRPLLAVQEALKKCFPVVEEQQGLWQSALRDCQPLLSSLSNLAEQLQAAQNLRFEDVPALRAFPDLKERLRQPSSSRCETWSAAMWSECFRSMSNTQTQLALMLSCSLQQ | soluble
MGHHHHHHSHMGGLPMISASLQQRKTRTRRSMLFVPGANAAMVSNSFIYPADALMFDLEDSVALREKDTARRMVYHALQHPLYRDIETIVRVNALDSEWGVNDLEAVVRGGADVVRLPKTDTAQDVLDIEKEILRIEKACGREPGSTGLLAAIESPLGITRAVEIAHASERLIGIALGAEDYVRNLRTERSPEGTELLFARCSILQAARSAGIQAFDTVYSDANNEAGFLQEAAHIKQLGFDGKSLINPRQIDLLHNLYAPTQKEVDHARRVVEAAEAAAREGLGVVSLNGKMVDGPVIDRARLVLSRAELSGIREE | not soluble
GHLYLVPTPIGNLDDMTFRAVKTLTAVDLIAAEDTRNTQKLLNHFEITTKQISFHEHNTQERIPQLIAKLKQGMQIAQVSDAGMPSISDPGHELVNACIDAHIPVVPLPGA | not soluble
AHHHHHHASAKWVCKICGYIYDEDAGDPDNGISPGTKFEELPDDWVCPICGAPKSEFEKLEDGSEKVDRIIQMEIGRINSHLPKARKSLCELLKEDSPSIELRDGSLHYFRRSELEFLKTLAGEEACLVKLPIILELSTLDRGYFVVRGRGEVRVIKKLLELSEDIYLEENTVRLPRYYLPTIRRKLPTTTVYAFITEW | soluble
MEKLINRVGPNGESRAQAVTSDQEKRLLHQLREITRVMKEGKFIDTSPEKEAEEAPYMEDWEGYPEETYPIYDLSDGIKRRQETILVDYPDLKEPSAEEIAEQMGEIEEEGSERLSWDHLPTDPGAQKDNSVAPCDPKPESCSCCVHEEEDPAVLAENAGFSADGYSEQEEATKENLPQDFTNEGLGVSTDNAHVGGMLRKRNPQGFE | not soluble
MSLDYDLLIKNGQTVNGMPVEIAIKEKKIAAVAATISGSAKETIHLEPGTYVSAGWIDDHVHCFEKMALYYDYPDEIGVKKGVTTVIDAGTTGAENIHEFYDLAQQAKTNVFGLVNISKWGIVAQDELADLSKVQASLVKKAIQELPDFVVGIKARMSRTVIGDNGITPLELAKQIQQENQEIPLMVHIGSAPPHLDEILALMEKGDVLTHCFNGKENGILDQATDKIKDFAWQAYNKGVVFDIGHGTDSFNFHVAETALREGMKAASISTDIYIRNRENGPVYDLATTMEKLRVVGYDWPEIIEKVTKAPAENFHLTQKGTLEIGKDADLTIFTIQAEEKTLTDSNGLTRVAKEQIRPIKTIIGGQIYDNEGHHHHHH | soluble
